Measured values as given in publication PMC6327479.

System: T1, HicB-6His (Sinorhizobium meliloti), ORF:5e3b9e2c
T1 sequence: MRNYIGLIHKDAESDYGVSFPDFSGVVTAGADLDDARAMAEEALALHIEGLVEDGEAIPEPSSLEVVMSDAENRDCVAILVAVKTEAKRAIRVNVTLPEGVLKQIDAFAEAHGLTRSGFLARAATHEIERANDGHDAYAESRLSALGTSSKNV
Assay: EMSA
Settings: EMSA: 10 mM Tris-HCl pH 7.5, 50 mM NaCl, 1 mM DTT, 300 ug/ml BSA, 20 ul, 30 min at 25 C; 5% native PAGE in TAE pH 7.5

“GATCCGACGGTTCGAGACCATCCGAGAAAGCCGCCTTAGATTGGCTTGACAAATTCATTGGACGAATACACATGCGTGTGTATTGTCGTATCAGATGAAGAGCGGCGACATTATTGCAGCATTGCAGAAGGACGGATGGTACGAGGTTGCGACCAAGGGCAGCCACGTTCAATTCAAACATCCGAAAAAGCACGGCCGGGTTACCGTTCCTCACCCGAAGA (double strand) [hicAB promoter fragment]” was tested, and the binding was “binds”.
